Data taken from the DeepSol protein solubility set.

Assay: soluble on expression in E. coli; label from the status in PepcDB or PDB records

| Sequence | soluble on expression in E. coli |
| --- | --- |
| MLILDYTKLKVTFMTMHHPNLQQHDRPQAISRSYLDIRHVVKQFGSFTALKEISLSIEKGEFVCFLGPSGCGKTTLLRAIAGLDLPTSGTIHQNQQAITFLPPEQRDFGIVFQSYALFPNLTVEENIAIGLRNQGMSVRDALEKVEQWLEMIGLATSAQKYPSQLSGGQQQRVALARALALSPGLLLLDEPLSALDAKVRTHLREEICQLQRKLGITTIMVTHDQEEALTMADRIVVMNHGVIEQVGTPQEIYQKPASRFVAEFVGTMNFIPVSMASSQQLRIAESLIALPKIENYTPCQGEQFDLAVRPENLELVTRYNEAIPVVIRHLEFLGAFYRVECVFQGERLAPPVYVDLPITQVQTMNLKAGDVRYLALRAGQLRAYRRKVMSTTPAATASCAYAA | not soluble |
| MLILGIDTSTKICTCSIFDSENGVIAETSLSVKKNHSNIVMPIIDNLFKISDLTINDIDKIAVAIGPGSFTGVRIALGIAKGLAMALNKPLIAINELDILEAIASGNENEIIPLIDARKERVYYKYQNKYVDDYLINLTSNFDKNKKYIFVGDGAINYKNILKDNLGENAIILPMYNSFPRASILCELALNKEEANIYTLEPEYISKSRAEKHFLEHHHHHH | soluble |
| MLILSTEKEPNFEYEEITRSFLSNMLAFTRGHFTGDISHFSPIVLAEMEKDPNWLEEAAGGMQGVIVQSLLEDENFSSVEQLKGELARLIRLYFALAKDNLTENQESLYVDLFDKFTFLLLCSDEFIMYLDSQPKF | soluble |
| MLIRPNKVQKVGNLFMDTVHEEEIRLLNQLYDTLMKKDVEKADQLMDELLVDLEDHFTTEEELMREFEFFAYPMHKAEHDTMRKRFKEVYDKWKKEKNPEEVVRFLKEEFVPWLKSHVARWDSTTAQQLGD | not soluble |
| MLKCAVDEAAGGRAQAFVSSGDNIGGSPFQSSILGDEPTLEALNQMGLDYSAVGNHEFDKGYADLSSRVADLADFDYLGANVEGENPDLAPYGISHLDGVKVAFVGTVSQETPMLVNSEGIEGITFTDPLEATNRVADELVGSGAADVVVALYHEGITGTEAWSENIDVVFAGHTH | not soluble |
| MLKKIREEFGCIFARDPAAQSFFEILTVYPGVHAVLIHRFSHWLWNHGLHWPARVLSYLARWATGIEIHPGATLGRRLFIDHGMGVVIGETAVIGDDCTLYHGVTLGGTSWQKGKRHPTLGNGVVVGAGAKVLGPITVGDGARIGSNSVVLRTVPAGATVVGIPGHIINPDRRAQEAQRLAIASRLGFDAYGMTPDMPDPVAHAINHMLDHIQALDQQVAKLKEVLRERGIDLEEAPLPDLDDCQLDPGEPQVTVNSSRTGLEHHHHHH | soluble |
| MLKKLKNFILFSSIFSPIAFAISCSNTGVVKQEDVSVSQGQWDKSITFGVSEAWLNKKKGGEKVNKEVINTFLENFKKEFNKLKNANDKTKNFDDVDFKVTPIQDFTVLLNNLSTDNPELDFGINASGKLVEFLKNNPGIITPALETTTNSFVFDKEKDKFYVDGTDSDPLVKIAKEINKIFVETPYASWTDENHKWNGNVYQSVYDPTVQANFYRGMIWIKGNDETLAKIKKAWNDKDWNTFRNFGILHGKDNSSSKFKLEETILKNHFQNKFTTLNEDRSAHPNAYKQKSADTLGTLDDFHIAFSEEGSFAWTHNKSATKPFETKANEKMEALIVTNPIPYDVGVFRKSVNQLEQNLIVQTFINLAKNKQDTYGPLLGYNGYKKIDNFQKEIVEVYEKAIK | soluble |
| MLKQTFLLSALLFGLSACQSTDVAKQDTVPLQGSWHIEAVQGQPTVDYSPAQITFDAEGKISGNNSCNNFFGQYSQQGQELKIIPGGSTMKACVDALMQQEHKVMQALPLVAKAKLVEGRLTLLSSDDKAVFVLSQLK | soluble |
| MLKRTRSLVCLCLAAAISSPTTYANSIDLPDIGTAAGGTLSIDQELIYGDAYMRMLRASKPIVNDPVINEYIDSLGHRLVANANDVKTPFHFFMIRDRNINAFAFFGGYVALHSGLFLHARSESELASVVAHEIAHVTQRHLARSMEDQARRSPATLAALAGALLLSIASPEAGMAAITAATAGNMQSQINYTRSNEKEADRFGIATLAKAGFDVQAMPRFFGRLADEYRYASKPPPMLLTHPLPEDRVADSRQRAQAYPPMRIAPSIDYHLARARIVARYAGIDGQAALGWFERTQKKASADIMPSFDYGRALVHLDNKRLSQAEPILKKLLAQDPGNPFYLDAMTDLYIEKKQPQKAVELLNSALKRNPQNKVLTINYANALLEANQNDQAVRTLQRYTHDNPEDSNGWQLLSKGYHALGRSDEELAARAEILALRANWNKAIQYYSEASKMAELGSLEQARYDARIDQLMIQRDRFMALQLEHHHHHH | soluble |
| MLKSVLDALENGRLVELPDNDKSDALQFLATILEAVPSIPAGSNIVEIVLEHEKNSNTSLGFGWACPHARVNFDGDLCCAIGWSPAGIDYGIAGEPLVRLVVMFFVPENQRNTYLKEVSTLARVLKSNPEFQNLEPIGDLDQVRNTLLDMTHQAMSEGGKNYRARMIQLDTLTKSAGDAGHYWLKGMQIDALLVVAGPDIKPLVLSQNAELSRLATQDTQLVPAIASGNHYELQGWQIVRRSSTAYAGERVIYDCLAIKTRQGQGAPEAGG | soluble |
| MLLDKLSRPLKVLRISLTDRCNLRCNFCMPPGKEYNFLPKRQLLTPEEIEEYVKIFAKLGVEKVRLTGGEPLLREDLEEIIQRISKVEGIKDIALTTNGVFLKERLKALKEAGLKRITVSVHSLNPEKNQKLVNRSVNLGEVFEVIIRAKELGFKVKVNSVIIKGFNDDEILDLARFFKNLGVTLRFIEYMDVGTVNDWDFSKVVSADEILNLMKKEFTFYPLPKRPEDTSMDFIYEDGNKFGIIASVTKPFCRGCNRIRLSADGKLYTCLFSDKGHDLRNAVDKENFIKEVWKDRKDRYSELRRQMKRERKVEMFKVGGLEHHHHHH | not soluble |
| MLLDKLSRPLKVLRISLTDRCNLRCNFCMPPGKEYNFLPKRQLLTPEEIEEYVKIFAKLGVEKVRLTGGEPLLREDLEEIIQRISKVEGIKDIALTTNGVFLKERLKALKEAGLKRITVSVHSLNPEKNQKLVNRSVNLGEVFEVIIRAKELGFKVKVNSVIIKGFNDDEILDLARFFKNLGVTLRFIEYMDVGTVNDWDFSKVVSADEILNLMKKEFTFYPLPKRPEDTSMDFIYEDGNKFGIIASVTKPFCRGCNRIRLSADGKLYTCLFSDKGHDLRNAVDKENFIKEVWKDRKDRYSELRRQMKRERKVEMFKVGGMGHHHHHHSH | soluble |
| MLLELPATNSALAIKSVLMAMTPNNDAILVVGERGHIINWQNDDNWQQLQSPVSVAITDVTILSDGSKVAVGHDGVILKVDSNSTTWRKVFTGKEITQFQIAQLKQQYQSLEQVILQTQDEDELEELTYQLDDLTFAIEDNQLELKSGPNKPLLSVTSTSNDTLFASGAYGILLSSKDKGETWQLVSNHLDNPDRFHLNTVIATADDQLYIVGENGMGFHSTDVGQTWSVMTLPYSGSLFGILANTVKTHTISTDDINSTKNKTQLVAFGLQGNIMVSLDGGGNWQHIKLPRSTSLLGGNFSKQGKVYLVGHGGVIVSFYPENLSTLTIKKHPSGAALSSVLVKDNSLILAGQFGISQWPIEAEELEHHHHHH | not soluble |
| MLLGYCGSGYYGMQYNPPHKTIEGEILTKLFDVGAISEENSLAPKKNSFMAAARTDKGVHAMLNLLSLKITLREDTVAKLNAALPPEIRVWGIQPVNKKFNARSACDSRWYQYLIPEFILIGPPRSSLLHRNVGGCYREDGSQEVWDTFLEQTRGRFSGDELCRLQDTAQKLSESDPLVQDYVGLLSGTLSGYCLSPSKLDAFEAAMQEYVGTHNFHNFTTGKLWGDPSAQRHIKKVVVSQASPGWICVRIHGQSFMLHQIRRMVALAVLAARCQLPPNIVRNYFNAGPRKYIPRAPAQGLLLEGPVFDGYNTKLRNLLYCEIRPDDITLERMCRFRERQICTAIAHEETQRHVFCHFVRQMNRLATPLI | not soluble |
| MLLKGLYKVEFETPRRKAVGVIFASDGRLHGGSSAFAYIGAYEQQGQTIQGTITARRHTSDPAIQSVFGVDEVRVDFHGSTIGDYAQVEGMAAEAPSLGFKALLTRISQ | not soluble |
| MLLSGERIDQLYADDIQIIQSKEVFSFSIDAVLLANFPQLPKKGKIVDLCAGNGAVGLFVSRKTAAKIDQIELQPRLADMGQRSILLNKLEKQVTMYERDLKQATEVIKKDSVDLVLCNPPYFKERPTSQKNPNPHLAIARHEIHTSLQEVVTVSADLLKTNGRLAMVHRPDRFLDILHAMENANIAPKKARFVYPKPGKEANVLLIEGIKQGKKDGFRVLPPLFTYNEKNEYEAEMKAMLYGE | not soluble |
| MLMFTEKEFAAFEVAGLDERMAVIRAQIQPIFQELDTYFAEQLAPELGTELFVHIAQHRRRTVYPPENTWSALSPNKRGYKMQPHFQLGIWGDYVFMWLSFIDNPKNEKQIAQAFLENQQLFQALPEDTYVSLDHTVPQITPLPETDLEKALTRFRDVKKGEFEIGRIIPKDSDLWQNPEKARAYMLATYQQLLPLYQLAVAQ | not soluble |
| MLNEIICAGFGGQGVLTAGKIIMYVAYKAEKKITWFPSYGNEMRGGSANCNVVVSDEKIANPCVKNPDILLGMNSVSVDKYESLMKKNGYMFVNESLVSKDRKYREDINVIKVPVTEIAQNLGNEKAANICMLGAMVKSLDLFTKEEFESGMCEYFENQGKGKFNSKNVEAFEAGYDYE | not soluble |
| MLNPLRALTLGGLLLFSTLGHAAPAAPDALRIGYQKGSVSMVLAKSHQLLEQRYPQTHISWIEFPAGPQMLEALNVGSIDIGSTGDIPPIFAQAAGADLVYIGAEPPKPKAEVILVAQGSPIHNVAELKGKKVAFQKGSSSHNLLLRALQLAGLKFSDIQPVYLAPADARAAFQQGNVDAWAIWDPYYSAALLQGGARVLTDGTDLKQTGSFYLASRPYAERNGAFIEGVLDTFTQADALTHSQRAQSITLLAKTMGLPEAVIASYLDHRPPTAVTPVSAETAARQQQTADLFYENKLVPKKVDIRARIWQPTATQGAKS | not soluble |
| MLNQELELSLNMAFARAREHRHEFMTVEHLLLALLSNPSAREALEACSVDLVALRQELEAFIEQTTPVLPASEEERDTQPTLSFQRVLQRAVFHVQSSGRNEVTGANVLVAIFSEQESQAAYLLRKHEVSRLDVVNFISHGTRKDEPTQSSDPGSQPNSEEQAGGEERLENFTTNLNQLARVGGIDPLIGREKELERAIQVLCRRRKNNPLLVGESGVGKTAIAEGLAWRIVQGDVPEVMADCTIYSLDIGSLLAGTKYRGDFEKRFKALLKQLEQDTNSILFIDEIHTIIGAGAASGGQVDAANLIKPLLSSGKIRVIGSTTYQEFSNIFEKDRALARRFQKIDITEPSIEETVQIINGLKPKYEAHHDVRYTAKAVRAAVELAVKYINDRHLPDKAIDVIDEAGARARLMPVSKRKKTVNVADIESVVARIARIPEKSVSQSDRDTLKNLGDRLKMLVFGQDKAIEALTEAIKMARAGLGHEHKPVGSFLFAGPTGVGKTEVTVQLSKALGIELLRFDMSEYMERHTVSRLIGAPPGYVGFDQGGLLTDAVIKHPHAVLLLDEIEKAHPDVFNILLQVMDNGTLTDNNGRKADFRNVVLVMTTNAGVRETERKSIGLIHQDNSTDAMEEIKKIFTPEFRNRLDNIIWFDHLSTDVIHQVVDKFIVELQVQLDQKGVSLEVSQEARNWLAEKGYDRAMGARPMARVIQDNLKKPLANELLFGSLVDGGQVTVALDKEKNELTYGFQSAQKHKAEAAH | soluble |
